Source: article PMC2364200

Target: vitronectin (UniProt P04004)
Sequence of UniProt P04004 (P04004 20-478): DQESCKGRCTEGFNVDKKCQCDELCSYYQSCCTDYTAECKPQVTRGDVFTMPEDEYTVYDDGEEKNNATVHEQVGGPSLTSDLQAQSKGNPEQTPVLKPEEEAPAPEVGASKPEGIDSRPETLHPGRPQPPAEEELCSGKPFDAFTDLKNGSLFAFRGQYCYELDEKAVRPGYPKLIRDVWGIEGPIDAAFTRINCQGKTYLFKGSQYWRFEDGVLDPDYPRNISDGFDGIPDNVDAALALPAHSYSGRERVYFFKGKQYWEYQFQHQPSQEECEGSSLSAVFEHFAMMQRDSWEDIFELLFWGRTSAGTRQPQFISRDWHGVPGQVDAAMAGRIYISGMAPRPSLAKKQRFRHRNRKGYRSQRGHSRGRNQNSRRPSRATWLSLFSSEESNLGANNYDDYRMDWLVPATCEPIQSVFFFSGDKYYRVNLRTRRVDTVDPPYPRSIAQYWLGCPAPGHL

In the case of “avb3 integrin heterodimer, wild type b3 (on V3B3 squamous cell carcinoma cells) (from UniProt P06756 31-1048; P05106 27-788) (receptor)”, the adhesion of V3B3 cells on vitronectin (C1 null transfectant cells without avb3: 6.52%) is reported as 38.6%, the haptotactic migration of V3B3 cells towards vitronectin (C1 cells: 2.01%) is reported as 20.3% and the haptotactic migration of V3B3 cells towards vitronectin in the presence of LM609 is reported as 3.92%. It also gave an inhibition of adhesion of V3B3 cells to vitronectin by LM609 (anti-avb3 blocking antibody) of 30.6%.

With “avb3 integrin heterodimer with the b3 chimaeric mutant whose cytoplasmic domain is extended by the C-terminal 11 amino acids of b6 (on V3B3S11aa squamous cell carcinoma cells) (from UniProt P06756 31-1048; P05106 27-788; P18564 778-788) (receptor)” the adhesion of V3B3S11aa cells on vitronectin (C1 null transfectant cells without avb3: 6.52%) was 39.5%, the haptotactic migration of V3B3S11aa cells towards vitronectin (C1 cells: 2.01%) was 21.8% and the haptotactic migration of V3B3S11aa cells towards vitronectin in the presence of LM609 was 0%. For the same substance, the inhibition of adhesion of V3B3S11aa cells to vitronectin by LM609 (anti-avb3 blocking antibody) was 26%.
